B1: carbonyl reductase: NADPH-dependent carbonyl reductase purified from Torulaspora delbrueckii JCM 5921; amino acid sequence SEQ ID NO: 2 (protein, listed as Torulaspora delbrueckii)
chain: MSILVSGATGFIALHVVSDLLKQDYKVIGTVRSQEKADKLRKQFGNNPNLSFELVSDIAAPEAFDKVFQKHGKDIKVVLHTASPFTLETTNYEKDLLLPAVNGTKSILESIKKYAADSVERVVITSSYAAVMNVSKEGDGSIVYTEKDWNPATWENCQIDGLNAYCGSKKLAEKAAWDFFEDNKNVVKFKLSMINPTYVFGPQLFDEDVKDKLNTSCELINSIIKNNPQVGYLLENIKGHFVDVRDVAKAHLVAFQKDEAIGQRLLTSNGRFAYQDLVDIINEDFPQLKGKVIVGKPGAGKQLYGTFPDINNTRSKEILGFEFISLHKSVHDTAAQVLKKEGKL

Columns and labels:
[1] = test system: carbonyl reductase; experiment: Substrate specificity: NADPH-dependent reduction by the carbonyl reductase obtained in Example 1; type: biochemical, Torulaspora delbrueckii; details: substrate 5 mM, coenzyme NADPH; reduction of 3,4-dimethoxyphenylacetone regarded as 100
Description: (§1) A reaction solution comprising 50 mM potassium phosphate buffer (pH 6.5), 0.2 mM NADPH, 5 mM 3,4-dimethoxyphenylacetone, and an enzyme is reacted at 30° C. Any decrease in absorbance at 340 nm accompanying a decrease in NADPH is measured. 1U is defined as the amount of enzyme which catalyzes a 1 μmol decrease of NADPH in one minute.
(§2) The enzyme obtained in Example 1 was reacted with various ketones, ketoesters, and soon. The activities of the reduction reactions were expressed as relative activities, where the reduction of 3,4-dimethoxyphenylacetone was regarded as 100 (Table 2) (substrate specificity of carbonyl reductase). The activity of dehydrogenating 1-(3,4-dimethoxyphenyl)-2-propanol was measured as follows: A reaction was performed at 30° C. in a reaction solution comprising 50 mM Tris-HCl buffer (pH 8.5), 2.5 mM NADP^+, 5 mM 1-(3,4-dimethoxyphenyl)-2-propanol, and the enzyme. An increase in absorbance at 340 nm, accompanying NADPH production, was measured. 1 U was defined as the amount of enzyme catalyzing the production of 1 μmol NADPH per minute. In addition, the activity of reducing NADH-dependent 3,4-dimethoxyphenylacetone was measured as follows: A reaction was performed at 30° C. in a reaction solution comprising 50 mM potassium phosphate buffer (pH 6.5), 0.2 mM NADH, 5 mM 3,4-dimethoxyphenylacetone, and the enzyme, and decrease in absorbance at 340 nm, accompanying decrease in NADH, was measured. 1 U was defined as the amount of enzyme catalyzing a decrease of 1 μmol NADH per minute.

[2] = test system: carbonyl reductase; experiment: NADH-dependent 3,4-dimethoxyphenylacetone-reducing activity; type: biochemical, Torulaspora delbrueckii; details: substrate 5 mM, coenzyme NADH, pH 6.5, 30° C.
Description: as §2

[3] = 3,4-dimethoxyphenylacetone-reducing activity of the purified enzyme (specific activity, pH and temperature dependency); type: biochemical, Torulaspora delbrueckii; details: 3,4-dimethoxyphenylacetone reduction, NADPH, pH 6.5, 30° C.
Description: as §1
The specific activity of the purified enzyme was 196 mU/mg.
By changing the pH using potassium phosphate buffer, sodium acetate buffer, and Britton-Robinson buffer, the 3,4-dimethoxyphenylacetone-reducing activity of the enzyme obtained in Example 1 was investigated. Activity at each pH was expressed as a relative activity, where the maximum activity was regarded as 100 (FIG. 2). Optimal pH (showing 80% or more relative activity) was 5.5 to 6.5.
Of the standard reaction conditions, only the temperature was changed, and the 3,4-dimethoxyphenylacetone-reducing activity of the enzyme obtained in Example 1 was then measured. Activity at each temperature was expressed as a relative activity, where the maximum activity was regarded as 100 (FIG. 3). Optimal temperature (showing 80% or more relative activity) was 50° C. to 55° C.

[4] = Enzymatic synthesis of (S)-1-(3,4-dimethoxyphenyl)-2-propanol: optical purity and reaction yield; type: biochemical; details: 0.25 U carbonyl reductase, 50 mM 3,4-dimethoxyphenylacetone, overnight, 25° C., pH 6.5
Description: A reaction was performed overnight at 25° C. in 1 mL of a reaction solution comprising 200 mM potassium phosphate buffer (pH 6.5), 1 mM NADP^+, 2 U glucose dehydroganase (Wako Pure Chemical Industries, Ltd.), 250 mM glucose, 0.25 U carbonyl reductase, and 50 mM 3,4-dimethoxyphenylacetone. The optical purity of the produced (S)-1-(3,4-dimethoxyphenyl)-2-propanol was measured as follows: One mL of ethyl acetate was added to 0.5 mL of the reaction solution to extract (S)-1-(3,4-dimethoxyphenyl)-2-propanol, and the extraction solvent was desolvated. 0.5 mL of a dissolving solution (n-hexane: isopropanol=4:1) was then added to dissolve the extract, which was then analyzed by liquid chromatography using an optical resolution column. CHIRALCEL OF (4.6 mm×25 cm; Daicel Chemical Industries, Ltd.) was used as the optical resolution column. Chromatography was performed with a wavelength of 220 nm, a flow rate of 1.0 mL/min, and at 40° C. using an eluting solution of n-hexane: isopropanol=4:1.
In addition, the (S)-1-(3,4-dimethoxyphenyl)-2-propanol thus-produced was quantified using gas chromatography, and a yield relative to the raw starting material, 3,4-dimethoxyphenylacetone, was obtained. Specifically, the analysis was performed at a column temperature of 210° C., using Thermon 3000 (10%)-Chromosorb W (AW-DMCS, Mesh 60–80; 3.2 mm×210 cm) with a hydrogen flame ionization detector (FID). The resulting reaction yield was about 95%.
To prepare crude enzyme solution for enzyme reaction, the crude enzyme solution prepared in Example 18 was concentrated ten-folds using a UF membrane. This solution was reacted overnight at 25° C. in 1 mL of a reaction solution comprising 200 mM potassium phosphate buffer (pH 6.5), 1 mM NADP^+, 2 U glucose dehydrogenase (Wako Pure Chemical Industries, Ltd.), 250 mM glucose, 0.2 U homolog enzyme, and 50 mM 3,4-dimethoxyphenylacetone. Optical purity was measured and the produced (S)-1-(3,4-dimethoxyphenyl)-2-propanol was quantified as in Example 6. As a result, YGL157w (pSE-YGP7) produced 93.7% ee (S)-1-(3,4-dimethoxyphenyl)-2-propanol at a yield of 66%, YGL039w (pSE-YGD9) produced 93.6% ee at a yield of 94%, and YDR541c (pSE-YDR1) produced 94.8% ee at a yield of 6%.

Molecule	Relative activity [1] [%]	Relative activity [2] [%]	Specific activity of the purified enzyme [3] [mU/mg]	Optical purity of the produced (S)-1-(3,4-dimethoxyphenyl)-2-propanol [4] [% ee]	Reaction yield relative to 3,4-dimethoxyphenylacetone [4]
COc1ccc(CC(C)=O)cc1OC [3,4-Dimethoxyphenylacetone]	100	0.0	–	–	–
B1	–	–	196	≥ 99	about 95%

Reference: patent US7083962B2, “Carbonyl reductases, polynucleotides comprising DNA encoding the same, methods for producing the same, and methods for producing optically active alcohol utilizing the same” (Daicel Chemical Industries Ltd., priority 2004, dated 2006)
